Source: US20240034786A1 (WUXI BIOLOGICS IRELAND, published 2024)

Tests used:
[1] = target: T1, Human P-cadherin on cells (human, UniProt P22223 108-829); assay: cell-based or functional assay
[2] = target: T1, Human P-cadherin on cells; assay: cell-based or functional assay; remark: listed apart in the source
[3] = target: T1, Human P-cadherin on cells; assay: cell-based or functional assay; remark: listed apart in the source
[4] = target: T1, Human P-cadherin on cells; assay: cell-based or functional assay; remark: listed apart in the source
[5] = target: T1, Human P-cadherin on cells; assay: FACS on HCT-116 cells, antibody kept in human serum at 37 C, Day 7
Procedure: (§1) The antibody stability in human serum was tested by FACS. Briefly, human serum was freshly isolated by centrifuging the fresh blood twice at 4000 rpm for 10 minutes. […] As a control, antibodies serum mix was frozen immediately without 37° C. incubation. For the FACS analysis, the samples from different time points were free-thawed simultaneously at 4° C. […] The cells were washed twice with 1% BSA/1×PBS (Ca+/Mg+). Alexa647 conjugated Goat anti-human IgG Fc (Jackson, #109-605-098) 1:500 diluted in 1% BSA/1×PBS (Ca+/Mg+) were added to the cells and incubated at 4° C. for 30 minutes. Cells were washed twice in the same buffer and the mean fluorescence (MFI) of stained cells was measured using a FACS Canto II cytometer (BD Biosciences) and analyzed by FlowJo. Wells containing no antibody or secondary antibody only were used to establish background fluorescence. Four-parameter non-linear regression analysis was used to obtain EC50 values for cell binding using GraphPad Prism6 software.

[6] = target: T2, W319-hPro1.D1.ECD.hFc (human, UniProt P22223 108-236); assay: direct ELISA on coated antigen
T2 construct: range 108-236; also called Human P-cadherin ECD domain 1; not shown: human Fc by the code hFc
Procedure: (§2) The binding of the antibodies to W319-hPro1.D1.ECD.hFc, W319-hPro1.D12.ECD.hFc (WT), W319-hPro1.D123.ECD.hFc (WT), W319-hPro1.D1234.ECD.hFc (WT) (2.5) and W319-hPro1.ECD.hFc (WT)-P3 were tested by a direct protein binding ELISA. 96-well high protein binding ELISA plates (Nunc MaxiSorp, ThermoFisher, Cat #: 442404) were coated overnight at 4° C. with 1 μg/mL antigens in Carbonate-bicarbonate buffer (20 mM Na2CO3, 180 mM NaHCO3, pH=9.2). All wells were washed three time with 300 μL per well of PBS/0.5‰ Tween-20 (v/v) and all the following wash steps in the assay were performed the same. The wells were then blocked for one hour with 2% BSA (Bovogen, Cat #: BSAS)/1×PBS (Ca+/Mg+) (Gibco, #14040-117) and washed three times. For the primary antibody binding, the testing antibodies including the BMKs and our antibodies serially diluted in 2% BSA/1×PBS (Ca+/Mg+) were added to the relevant wells and incubated at room temperature for two hours. Plates were washed three times prior to the addition of 100 μL of secondary antibody Goat anti-Human-IgG-F(ab′)2-HRP (Jackson, Cat #: 109-035-097) 5000-fold diluted in 2% BSA/1×PBS (Ca+/Mg+). Plates were incubated at room temperature for one hour, followed by six washes as describe above.
(§3) For the binding detection, 100 μL Tetramethylbenzidine (TMB) Substrate solution (Invitrogen, Cat #: 002023) was added to all wells for 10 minutes before stopping the reaction with 100 μL 2M HCl. The extent of the testing Abs binding to W319-hPro1.D1.ECD.hFc, W319-hPro1.D12.ECD.hFc (WT), W319-hPro1.D123.ECD.hFc (WT), W319-hPro1.D1234.ECD.hFc (WT) and W319-hPro1.ECD.hFc (WT)-P3 were determined by measuring the OD450 absorbance using the SpectraMax® M5e microplate reader. Wherever appropriate, binding EC50 values were obtained by the four-parameter non-linear regression analysis using GraphPad Prism 5 software.
(§4) Its binding epitope is different from BMKs.

[7] = target: T3, W319-hPro1.D12.ECD.hFc (WT) (human, UniProt P22223 108-348); assay: direct ELISA on coated antigen
T3 construct: range 108-348; also called Human P-cadherin ECD domain 1&2; domain 1-2; not shown: human Fc by the code hFc
Procedure: as §2, §3, §4

[8] = target: T1, Human P-cadherin on cells; assay: FACS on HCT-116 cells, antibody kept in human serum at 37 C, Day 4
Procedure: as §1

T1 sequence (P22223 108-829): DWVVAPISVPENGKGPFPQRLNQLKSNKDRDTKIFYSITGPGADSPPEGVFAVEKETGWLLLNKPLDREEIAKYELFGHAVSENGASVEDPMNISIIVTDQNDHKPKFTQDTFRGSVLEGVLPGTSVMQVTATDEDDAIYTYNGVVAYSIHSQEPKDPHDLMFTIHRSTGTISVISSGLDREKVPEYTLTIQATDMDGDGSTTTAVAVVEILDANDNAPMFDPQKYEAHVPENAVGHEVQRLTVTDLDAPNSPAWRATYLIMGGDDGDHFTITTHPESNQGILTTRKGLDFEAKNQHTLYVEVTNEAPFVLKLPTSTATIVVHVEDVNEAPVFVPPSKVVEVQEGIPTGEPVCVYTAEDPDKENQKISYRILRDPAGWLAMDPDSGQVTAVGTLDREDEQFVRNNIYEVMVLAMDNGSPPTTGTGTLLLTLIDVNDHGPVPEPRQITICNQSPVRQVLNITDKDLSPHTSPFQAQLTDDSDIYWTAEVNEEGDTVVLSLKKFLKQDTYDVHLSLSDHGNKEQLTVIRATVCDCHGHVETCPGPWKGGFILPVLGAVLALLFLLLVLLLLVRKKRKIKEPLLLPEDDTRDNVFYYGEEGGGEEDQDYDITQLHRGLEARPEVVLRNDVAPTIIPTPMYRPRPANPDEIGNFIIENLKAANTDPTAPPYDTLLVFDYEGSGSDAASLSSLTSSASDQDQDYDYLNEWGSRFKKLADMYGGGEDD
T3 sequence (P22223 108-348): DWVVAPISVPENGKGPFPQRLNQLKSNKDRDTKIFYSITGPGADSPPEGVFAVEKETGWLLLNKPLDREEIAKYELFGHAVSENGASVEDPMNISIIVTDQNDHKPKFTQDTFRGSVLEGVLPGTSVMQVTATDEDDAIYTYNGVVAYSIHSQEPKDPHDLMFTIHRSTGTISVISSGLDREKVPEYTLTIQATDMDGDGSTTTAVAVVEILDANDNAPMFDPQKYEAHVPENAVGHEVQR
T2 sequence (P22223 108-236): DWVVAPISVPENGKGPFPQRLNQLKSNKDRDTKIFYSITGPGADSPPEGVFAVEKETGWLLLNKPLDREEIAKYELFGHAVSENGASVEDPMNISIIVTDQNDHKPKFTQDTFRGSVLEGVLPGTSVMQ

B1: W3195-1.53.1-p1-uIgG1L (antibody)
heavy: not shown
light: SYELTQPPSVSVSPGQTAQITCSGDKLGDKFASWYQQKSGQSPVVVIYQDNKRPSGFPERFSGSNSGNTATLTISGTQAMDEADYYCQAWDSSIVVFGGGTKLTVLGQPKAAPSVTLFPPSSEELQANKATLVCLISDFYPGAVTVAWKADSSPVKAGVETTTPSKQSNNKYAASSYLSLTPEQWKSHRSYSCQVTHEGSTVEKTVAPTECS
notes: also called W3195-p1 antibody
[1]
  ADCC reporter gene assay, EC50: 0.052 nM
  ADCC reporter gene assay, Max Fold Change: 145 fold
[2]
  internalization, Fab-ZAP CTG assay on HCC-1954, IC50: 0.02 nM
[3]
  internalization, HCS assay on HCC-1954, EC50: 0.029 nM
[4]
  cell aggregation assay on DU-145, EC50: 0.39 nM
  cell aggregation assay on DU-145, Max Fold change: 1.75 fold
[5]
  EC50: 0.21 nM
[6]
  Max OD450: 0.07
[7]
  Max OD450: 0.08
[8]
  EC50: 0.16 nM
